The results in this text go back to article PMC5384747, “Characterization and mutational analysis of a nicotinamide mononucleotide deamidase from Agrobacterium tumefaciens showing high thermal stability and catalytic efficiency” (PLoS ONE, 2017).

Substrate in the data set “purified protein”: NC(=O)c1ccc[n+]([C@@H]2O[C@H](COP(=O)(O)O)[C@@H](O)[C@H]2O)c1
Briefly: purified protein. Format: biochemical, Agrobacterium fabrum. The settings on record: 50 mM sodium phosphate pH 7.5, 37 °C.

Data set [1] concerns the molecule itself. Briefly: SEC; gel filtration on Superdex 200 10/300 GL of the purified enzyme; about 41 kDa against about 19 kDa by SDS-PAGE. For orientation: Size exclusion chromatography separates by hydrodynamic size, large species first.

B1: AtCinA (NMN deamidase) (Agrobacterium fabrum str. C58) (protein)
chain: MSLFPGDIEELARRIITDFTPLGLMVSTAESCTGGLIAGALTEIAGSSAVVDRGFVTYTNDAKRDMLGVGTETLTTFGAVSRQTALQMAHGALYRSRANFAVAVTGIAGPGGGSAEKPVGLVHLATKARNGNVLHHEMRYGDIGRTEIRLATVRTALEMLIALNQAGSV
notes: full length (169 residues, synthetic 510 bp gene), C-terminal His tag (pET24b), E. coli Rosetta 2(DE3); about 19 kDa subunit, 41 kDa homodimer
As to B1, in the data set “purified protein”, the Km came to 24 ± 2 µM, the kcat came to 8.7 ± 0.2 s⁻¹ and the kcat/Km is 362000 M⁻¹ s⁻¹.

B2: Agrobacterium tumefaciens nicotinamide mononucleotide (NMN) deamidase (enzyme)
chain: MSLFPGDIEELARRIITDFTPLGLMVSTAESCTGGLIAGALTEIAGSSAVVDRGFVTYTNDAKRDMLGVGTETLTTFGAVSRQTALQMAHGALYRSRANFAVAVTGIAGPGGGSAEKPVGLVHLATKARNGNVLHHEMRYGDIGRTEIRLATVRTALEMLIALNQAGSV
notes: NMN deamidase CinA of Agrobacterium tumefaciens, UniProt A9CJ26, 169 amino acids; 510 bp synthetic gene cloned between NheI and XhoI of pET24b; Cloning at the NheI and XhoI sites may add a few vector residues; also called AtCinA; CinA
In the case of B2, the “stoichiometry N” value in data set [1] was found to be 2.

The term Km denotes the substrate concentration at which the rate is half of its maximum. The kcat is the number of substrate molecules converted per active site and unit of time at saturation. For orientation: kcat/Km means the second-order rate constant that governs catalysis at low substrate concentration. One may read the stoichiometry N as a count of units in the complex or per binding partner.
